According to patent US20050002900A1, “Method of treating estrogen responsive breast cancer” (priority 2001, published 2005):
Values belong to the molecule of their own block, whether it stands above or below them.

Legend:
[1] = system: aromatase mRNA; assay: RT-PCR of aromatase mRNA in cultured adipocytes; type: cell-based, human; details: for expression of aromatase mRNA in human adipocytes: interferon alone, endogenous expression, FIG. 3; for transcription of aromatase mRNA: cytokine alone compared to untreated control
Method: (§1) Human subcutaneous cultured adipocytes and preadipocytes, catalog nos. SP-1012, SP-1024, SP-1096, SP-75, or SP-25 were purchased from Zen-Bio, Inc. (Research Triangle Park, N.C.) and cultured according to the manufacturer's instructions.
Adipocyte cultures were treated with IL-1-β, IFN-γ, TNF-α, and combinations of IL-1-β and IFN-γ and TNF-α and IFN-γ. Consequently, total RNA from cultured adipocytes was isolated using conventional methods. The reverse transcriptase polymerase chain reaction (RT-PCR) was performed using aromatase specific primers. The amplified aromatase cDNA fragments produced by RT-PCR were separated on an agarose gel. […] The estradiol production by the cells is shown as pikograms/ml (pg/ml) below the photograph of the gel showing the aromatase mRNA levels.
(§2) The isolated human adipocytes were also treated with different interferon family members: IFN-α, -β, and -γ.

[2] = system: human adipocytes; assay: Estradiol production by cultured human adipocytes (Active Estradiol EIA kit); type: cell-based; details: for estradiol amount: cytokine alone at increasing concentrations
Method: as §1
The culture medium of the preadipocytes was supplemented with 0.1 μg/ml IFN-γ and increasing concentrations of either TNF-α or TNF-β as shown in FIG. 1. Estradiol concentrations were measured using the Active™ Estradiol EIA kit according to the manufacturer's instructions (catalog no. DSL-10-4300, Diagnostic Systems Laboratories, Inc., Webster, Tex.).
as §2

Molecule: IFN-α
- expression of aromatase mRNA in human adipocytes [1]: significantly increased
- estradiol production increase upon interferon induction ([2]; interferon alone, FIG. 3): about 6 fold

B1: TBP: soluble TNF binding protein, TNF-R1, as described in U.S. Pat. No. 6,225,300 (protein, UniProt P19438 30-211, looked up)
extracellular domain: LVPHLGDREKRDSVCPQGKYIHPQNNSICCTKCHKGTYLYNDCPGPGQDTDCRECESGSFTASENHLRHCLSCSKCRKEMGQVEISSCTVDRDTVCGCRKNQYRHYWSENLFQCFNCSLCLNGTVHLSCQEKQNTVCTCHAGFFLRENECVSCSNCKKSLECTKLCLPQIENVKGTEDSGTT
modifications: extracellular domain
- TNF-α induced estradiol production ([2]; TNF-α at varying concentrations plus TBP, FIG. 4): completely blocked
- TNF-β induced estradiol production ([2]; TNF-β at varying concentrations plus TBP, FIG. 4): completely blocked

B3: TNF-β: tumor necrosis factor beta (protein, UniProt P01374 35-205, looked up)
Lymphotoxin-alpha: LPGVGLTPSAAQTARQHPKMHLAHSTLKPAAHLIGDPSKQNSLLWRANTDRAFLQDGFSLSNNSLLVPTSGIYFVYSQVVFSGKAYSPKATSSPLYLAHEVQLFSSQYPFHVPLLSSQKMVYPGLQEPWLHSMYHGAAFQLTQGDQLSTHTDGIPHLVLSPSTVFFGAFAL
- estradiol amount ([2]; FIG. 1): significantly increased

More lines, main results first:

- transcription of aromatase mRNA ([1]; FIG. 2): induced
Molecule: TNF-α
- estradiol amount ([2]; FIG. 1): significantly increased

- transcription of aromatase mRNA ([1]; FIG. 2): induced
Molecule: IL-1β: interleukin-1β

- transcription of aromatase mRNA induced by IL-1β ([1]; given together with IL-1β, FIG. 2): inhibits
- transcription of aromatase mRNA induced by TNFα ([1]; given together with TNFα, FIG. 2): inhibits
- expression of aromatase mRNA in human adipocytes [1]: inhibits
B2: IFN-γ: interferon gamma, added at 0.1 μg/ml to adipocyte culture medium (protein, UniProt P01579 24-161, looked up)
Interferon gamma: QDPYVKEAENLKKYFNAGHSDVADNGTLFLGILKNWKEESDRKIMQSQIVSFYFKLFKNFKDDQSIQKSVETIKEDMNVKFFNSNKKKRDDFEKLTNYSVTDLNVQRKAIHELIQVMAELSPAAKTGKRKRSQMLFRG
- TNF-α induced estradiol production ([2]; 0.1 μg/ml IFN-γ, increasing concentrations of TNF-α, FIG. 1): inhibits
- TNF-β induced estradiol production ([2]; 0.1 μg/ml IFN-γ, increasing concentrations of TNF-β, FIG. 1): inhibits
- estradiol production ([2]; IFN-γ alone, FIG. 3): blocked completely
